# Measured values published in the RNAGym collection of RNA variant scans (doi:10.7554/elife.80360).
# B1: Twister Ribozyme (parent)
# chain: AACACUGCCAAUGCCGGUCCCAAGCCCGGAUAAAAGUGGAGGGGGCGG
# Variants of: B1
# Assay: self-cleavage, relative activity (ratio to wild type); higher = more cleavage; co-transcriptional
row,Variant,self-cleavage
1,AACACUGCCAAUUCCGCUCCCAAGCCCGGAUAAAAGUGGAGGGGGCGG [G13U G17C],0.0903
2,AACACUGCCAAUUCCGGUCCCAAGCCCCGAUAAAAGUGGAGGGGGCGG [G13U G28C],0.405
3,AACACUGCCAAUCCCGGUCCCAAGCCCGGAGAAAAGUGGAGGGGGCGG [G13C U31G],0.585
4,AACACUGCCAAUCCCGGUCCCAAGCCCGGAAAAAAGUGGAGGGGGCGG [G13C U31A],0.767
5,AACACUGCCAAUCCCGGUCCCAAGCCCGGAUAAAAGUGGAGGGGCCGG [G13C G45C],0.138
6,AACACUGCCAAUCCCGGUCCCAAGCCCGGAUAAAAGUGGAGGGGACGG [G13C G45A],0.209
7,AACACUGCCAAUUCCGGUCCCAAGCCCGGAUAAAAGUGGACGGGGCGG [G13U G41C],0.149
8,AACACUGCCAAUUCCGGUCCCAAGCCCGUAUAAAAGUGGAGGGGGCGG [G13U G29U],0.588
9,AACACUGCCAAUUCCGGUCCCAAGCCCGCAUAAAAGUGGAGGGGGCGG [G13U G29C],0.555
10,AACACUGCCAAUUCCGGUCCCAAGCCCGGAUAAAGGUGGAGGGGGCGG [G13U A35G],0.127
11,AACACUGCCAAUUCCGGUCCCAAGCCCGGAUAAAAGUGGAGGGGCCGG [G13U G45C],0.194
12,AACACUGCCAAUUCCGGUCCCAAGCCCGGAUAAAAGUGGAGGGGUCGG [G13U G45U],0.212
13,AACACUGCCAAUCCCGAUCCCAAGCCCGGAUAAAAGUGGAGGGGGCGG [G13C G17A],0.0829
14,AACACUGCCAAUUCCGGUCCCAAGCCCGGAUAAAAGUGGGGGGGGCGG [G13U A40G],0.152
15,AACACUGCCAAUUCCGGUCCCAAGCCCGGAUAAGAGUGGAGGGGGCGG [G13U A34G],0.211
16,AACACUGCCAAUCCCGGUCCCAAGCGCGGAUAAAAGUGGAGGGGGCGG [G13C C26G],0.101
17,AACACUGCCAAUUCCGGUCCCAAGCCCGGAUAAAAGUGGAGGGGGCAG [G13U G47A],0.228
18,AACACUGCCAAUUCCGGUCCCAAGCCCGGAUAAAAGUGGAGGGGGCCG [G13U G47C],0.179
19,AACACUGCCAAUCCCGGUCCCAAGCCCGGAUAAAAGUGGAGGGCGCGG [G13C G44C],0.185
20,AACACUGCCAAUCCCGGUCCCAAGCCCGGAUAAAAGUGGAGGGUGCGG [G13C G44U],0.254
21,AACACUGCCAAUUUCGGUCCCAAGCCCGGAUAAAAGUGGAGGGGGCGG [G13U C14U],0.635
22,AACACUGCCAAUUCCGGUCCCAAGCCCGGAUAAAAGUGGAGGGGGGGG [G13U C46G],0.328
23,AACACUGCCAAUUCCGGUCCCAAGCCCGGAUAAAAGUGGAGGGGGAGG [G13U C46A],0.361
24,AACACUGCCAAUUCCGGUCCCAAGCCCGGAUAAAAGUGGAGGGGGUGG [G13U C46U],0.586
25,AACACUGCCAAUCCCGGUCCCCAGCCCGGAUAAAAGUGGAGGGGGCGG [G13C A22C],0.71
26,AACACUGCCAAUCCCGGUCCCAAGCCCGUAUAAAAGUGGAGGGGGCGG [G13C G29U],0.46
27,AACACUGCCAAUCCCGGUCCCAAGCCCGAAUAAAAGUGGAGGGGGCGG [G13C G29A],0.411

row,Variant,self-cleavage
1,AACACUGCCAAUCCCGGUCCCAAGCCCGCAUAAAAGUGGAGGGGGCGG [G13C G29C],0.477
2,AACACUGCCAAUUCCGGUCCCAAGCACGGAUAAAAGUGGAGGGGGCGG [G13U C26A],0.129
3,AACACUGCCAAUCCCGGUCCCAAGCCCGGGUAAAAGUGGAGGGGGCGG [G13C A30G],0.502
4,AACACUGCCAAUUCCGGUCCCAAGCCGGGAUAAAAGUGGAGGGGGCGG [G13U C27G],0.0965
5,AACACUGCCAAUUCCGGUCCCAAGCCUGGAUAAAAGUGGAGGGGGCGG [G13U C27U],0.212
6,AACACUGCCAAUUCCGGUCCCAAGCCAGGAUAAAAGUGGAGGGGGCGG [G13U C27A],0.0958
7,AACACUGCCAAUCACGGUCCCAAGCCCGGAUAAAAGUGGAGGGGGCGG [G13C C14A],0.593
8,AACACUGCCAAUCCCGGUCCCAAGCCCGGAUAAAAGUGGAGCGGGCGG [G13C G42C],0.166
9,AACACUGCCAAUCCCGGUCCCAAGCCCGGAUAAAAGUGGAGUGGGCGG [G13C G42U],0.112
10,AACACUGCCAAUCCCGGUCCCAUGCCCGGAUAAAAGUGGAGGGGGCGG [G13C A23U],0.0457
11,AACACUGCCAAUCCCGGUCCCAAGCCCGGAUAAAAGUGGAAGGGGCGG [G13C G41A],0.0914
12,AACACUGCCAAUCCCGGUCCCAAGCCCGGAUAAAAGUGGAUGGGGCGG [G13C G41U],0.0855
13,AACACUGCCAAUCCCGGUCCCAAGCCCGGAUAAAAGUGGACGGGGCGG [G13C G41C],0.104
14,AACACUGCCAAUCCCGGUCCCAAGCCGGGAUAAAAGUGGAGGGGGCGG [G13C C27G],0.104
15,AACACUGCCAAUCCCGGUCCCAAGCCCGGAUAGAAGUGGAGGGGGCGG [G13C A33G],0.676
16,AACACUGCCAAUCCCGGUCCCAAGCCCGGAUAUAAGUGGAGGGGGCGG [G13C A33U],0.335
17,AACACUGCCAAUCCCGGUCCCAAGCCCGGAUAAAAAUGGAGGGGGCGG [G13C G36A],0.126
18,AACACUGCCAAUCCCGGUCCCAAGCCCGGAUAAAACUGGAGGGGGCGG [G13C G36C],0.122
19,AACACUGCCAAUUCCGGUCCCAAGCCCGGAUGAAAGUGGAGGGGGCGG [G13U A32G],0.354
20,AACACUGCCAAUUCCGGUCCCAAGCCCGGAUUAAAGUGGAGGGGGCGG [G13U A32U],0.489
21,AACACUGCCAAUUCCGGUCCGAAGCCCGGAUAAAAGUGGAGGGGGCGG [G13U C21G],0.0567
22,AACACUGCCAAUUCCGGUCCAAAGCCCGGAUAAAAGUGGAGGGGGCGG [G13U C21A],0.0794
23,AACACUGCCAAUUCCGGUCCCAAUCCCGGAUAAAAGUGGAGGGGGCGG [G13U G24U],0.0911
24,AACACUGCCAAUUCCGGUCCCAAACCCGGAUAAAAGUGGAGGGGGCGG [G13U G24A],0.0906
25,AACACUGCCAAUCCCGGUCCCAAGCCCGGAUUAAAGUGGAGGGGGCGG [G13C A32U],0.108
26,AACACUGCCAAUUCCGGUCCCAAGCCCGGAUAGAAGUGGAGGGGGCGG [G13U A33G],0.68
27,AACACUGCCAAUUCCGGUCCCAAGCCCGGAUAUAAGUGGAGGGGGCGG [G13U A33U],0.403
